B1: GCSP_HUMAN (protein, UniProt P23378 36-1020, looked up)
Glycine dehydrogenase …: DSSSGGGDSAAAGASRLLERLLPRHDDFARRHIGPGDKDQREMLQTLGLASIDELIEKTVPANIRLKRPLKMEDPVCENEILATLHAISSKNQIWRSYIGMGYYNCSVPQTILRNLLENSGWITQYTPYQPEVSQGRLESLLNYQTMVCDITGLDMANASLLDEGTAAAEALQLCYRHNKRRKFLVDPRCHPQTIAVVQTRAKYTGVLTELKLPCEMDFSGKDVSGVLFQYPDTEGKVEDFTELVERAHQSGSLACCATDLLALCILRPPGEFGVDIALGSSQRFGVPLGYGGPHAAFFAVRESLVRMMPGRMVGVTRDATGKEVYRLALQTREQHIRRDKATSNICTAQALLANMAAMFAIYHGSHGLEHIARRVHNATLILSEGLKRAGHQLQHDLFFDTLKIQCGCSVKEVLGRAAQRQINFRLFEDGTLGISLDETVNEKDLDDLLWIFGCESSAELVAESMGEECRGIPGSVFKRTSPFLTHQVFNSYHSETNIVRYMKKLENKDISLVHSMIPLGSCTMKLNSSSELAPITWKEFANIHPFVPLDQAQGYQQLFRELEKDLCELTGYDQVCFQPNSGAQGEYAGLATIRAYLNQKGEGHRTVCLIPKSAHGTNPASAHMAGMKIQPVEVDKYGNIDAVHLKAMVDKHKENLAAIMITYPSTNGVFEENISDVCDLIHQHGGQVYLDGANMNAQVGICRPGDFGSDVSHLNLHKTFCIPHGGGGPGMGPIGVKKHLAPFLPNHPVISLKRNEDACPVGTVSAAPWGSSSILPISWAYIKMMGGKGLKQATETAILNANYMAKRLETHYRILFRGARGYVGHEFILDTRPFKKSANIEAVDVAKRLQDYGFHAPTMSWPVAGTLMVEPTESEDKAELDRFCDAMISIRQEIADIEEGRIDPRVNPLKMSPHSLTCVTSSHWDRPYSREVAAFPLPFVKPENKFWPTIARIDDIYGDQHLVCTCPPMEVYESPFSEQKRASS
B2: SF01_HUMAN (protein, UniProt Q15637 2-639, looked up)
Splicing factor 1: ATGANATPLDFPSKKRKRSRWNQDTMEQKTVIPGMPTVIPPGLTREQERAYIVQLQIEDLTRKLRTGDLGIPPNPEDRSPSPEPIYNSEGKRLNTREFRTRKKLEEERHNLITEMVALNPDFKPPADYKPPATRVSDKVMIPQDEYPEINFVGLLIGPRGNTLKNIEKECNAKIMIRGKGSVKEGKVGRKDGQMLPGEDEPLHALVTANTMENVKKAVEQIRNILKQGIETPEDQNDLRKMQLRELARLNGTLREDDNRILRPWQSSETRSITNTTVCTKCGGAGHIASDCKFQRPGDPQSAQDKARMDKEYLSLMAELGEAPVPASVGSTSGPATTPLASAPRPAAPANNPPPPSLMSTTQSRPPWMNSGPSESRPYHGMHGGGPGGPGGGPHSFPHPLPSLTGGHGGHPMQHNPNGPPPPWMQPPPPPMNQGPHPPGHHGPPPMDQYLGSTPVGSGVYRLHQGKGMMPPPPMGMMPPPPPPPSGQPPPPPSGPLPPWQQQQQQPPPPPPPSSSMASSTPLPWQQNTTTTTTSAGTGSIPPWQQQQAAAAASPGAPQMQGNPTMVPLPPGVQPPLPPGAPPPPPPPPPGSAGMMYAPPPPPPPPMDPSNFVTMMGMGVAGMPPFGMPPAPPPPPPQN
B3: MCM4_HUMAN (protein, UniProt P33991 2-863, looked up)
DNA replication licensing …: SSPASTPSRRGSRRGRATPAQTPRSEDARSSPSQRRRGEDSTSTGELQPMPTSPGVDLQSPAAQDVLFSSPPQMHSSAIPLDFDVSSPLTYGTPSSRVEGTPRSGVRGTPVRQRPDLGSAQKGLQVDLQSDGAAAEDIVASEQSLGQKLVIWGTDVNVAACKENFQRFLQRFIDPLAKEEENVGIDITEPLYMQRLGEINVIGEPFLNVNCEHIKSFDKNLYRQLISYPQEVIPTFDMAVNEIFFDRYPDSILEHQIQVRPFNALKTKNMRNLNPEDIDQLITISGMVIRTSQLIPEMQEAFFQCQVCAHTTRVEMDRGRIAEPSVCGRCHTTHSMALIHNRSLFSDKQMIKLQESPEDMPAGQTPHTVILFAHNDLVDKVQPGDRVNVTGIYRAVPIRVNPRVSNVKSVYKTHIDVIHYRKTDAKRLHGLDEEAEQKLFSEKRVELLKELSRKPDIYERLASALAPSIYEHEDIKKGILLQLFGGTRKDFSHTGRGKFRAEINILLCGDPGTSKSQLLQYVYNLVPRGQYTSGKGSSAVGLTAYVMKDPETRQLVLQTGALVLSDNGICCIDEFDKMNESTRSVLHEVMEQQTLSIAKAGIICQLNARTSVLAAANPIESQWNPKKTTIENIQLPHTLLSRFDLIFLLLDPQDEAYDRRLAHHLVALYYQSEEQAEEELLDMAVLKDYIAYAHSTIMPRLSEEASQALIEAYVDMRKIGSSRGMVSAYPRQLESLIRLAEAHAKVRLSNKVEAIDVEEAKRLHREALKQSATDPRTGIVDISILTTGMSATSRKRKEELAEALKKLILSKGKTPALKYQQLFEDIRGQSDIAITKDMFEEALRALADDDFLTVTGKTVRLL
B4: FUBP2_HUMAN (protein, UniProt Q92945 2-711, looked up)
Far upstream element-binding …: SDYSTGGPPPGPPPPAGGGGGAGGAGGGPPPGPPGAGDRGGGGPGGGGPGGGSAGGPSQPPGGGGPGIRKDAFADAVQRARQIAAKIGGDAATTVNNSTPDFGFGGQKRQLEDGDQPESKKLASQGDSISSQLGPIHPPPRTSMTEEYRVPDGMVGLIIGRGGEQINKIQQDSGCKVQISPDSGGLPERSVSLTGAPESVQKAKMMLDDIVSRGRGGPPGQFHDNANGGQNGTVQEIMIPAGKAGLVIGKGGETIKQLQERAGVKMILIQDGSQNTNVDKPLRIIGDPYKVQQACEMVMDILRERDQGGFGDRNEYGSRIGGGIDVPVPRHSVGVVIGRSGEMIKKIQNDAGVRIQFKQDDGTGPEKIAHIMGPPDRCEHAARIINDLLQSLRSGPPGPPGGPGMPPGGRGRGRGQGNWGPPGGEMTFSIPTHKCGLVIGRGGENVKAINQQTGAFVEISRQLPPNGDPNFKLFIIRGSPQQIDHAKQLIEEKIEGPLCPVGPGPGGPGPAGPMGPFNPGPFNQGPPGAPPHAGGPPPHQYPPQGWGNTYPQWQPPAPHDPSKAAAAAADPNAAWAAYYSHYYQQPPGPVPGPAPAPAAPPAQGEPPQPPPTGQSDYTKAWEEYYKKIGQQPQQPGAPPQQDYTKAWEEYYKKQAQVATGGGPGAPPGSQPDYSAAWAEYYRQQAAYYGQTPGPGGPQPPPTQQGQQQAQ
B5: CMTR1_HUMAN (protein, UniProt Q8N1G2 1-835, looked up)
Cap-specific mRNA …: MKRRTDPECTAPIKKQKKRVAELALSLSSTSDDEPPSSVSHGAKASTTSLSGSDSETEGKQHSSDSFDDAFKADSLVEGTSSRYSMYNSVSQKLMAKMGFREGEGLGKYSQGRKDIVEASSQKGRRGLGLTLRGFDQELNVDWRDEPEPSACEQVSWFPECTTEIPDTQEMSDWMVVGKRKMIIEDETEFCGEELLHSVLQCKSVFDVLDGEEMRRARTRANPYEMIRGVFFLNRAAMKMANMDFVFDRMFTNPRDSYGKPLVKDREAELLYFADVCAGPGGFSEYVLWRKKWHAKGFGMTLKGPNDFKLEDFYSASSELFEPYYGEGGIDGDGDITRPENISAFRNFVLDNTDRKGVHFLMADGGFSVEGQENLQEILSKQLLLCQFLMALSIVRTGGHFICKTFDLFTPFSVGLVYLLYCCFERVCLFKPITSRPANSERYVVCKGLKVGIDDVRDYLFAVNIKLNQLRNTDSDVNLVVPLEVIKGDHEFTDYMIRSNESHCSLQIKALAKIHAFVQDTTLSEPRQAEIRKECLRLWGIPDQARVAPSSSDPKSKFFELIQGTEIDIFSYKPTLLTSKTLEKIRPVFDYRCMVSGSEQKFLIGLGKSQIYTWDGRQSDRWIKLDLKTELPRDTLLSVEIVHELKGEGKAQRKISAIHILDVLVLNGTDVREQHFNQRIQLAEKFVKAVSKPSRPDMNPIRVKEVYRLEEMEKIFVRLEMKIIKGSSGTPKLSYTGRDDRHFVPMGLYIVRTVNEPWTMGFSKSFKKKFFYNKKTKDSTFDLPADSIAPFHICYYGRLFWEWGDGIRVHDSQKPQDQDKLSKEDVLSFIQMHRA
B6: DDX17_HUMAN (protein, UniProt Q92841 1-729, looked up)
Probable ATP-dependent RNA …: MPTGFVAPILCVLLPSPTREAATVASATGDSASERESAAPAAAPTAEAPPPSVVTRPEPQALPSPAIRAPLPDLYPFGTMRGGGFGDRDRDRDRGGFGARGGGGLPPKKFGNPGERLRKKKWDLSELPKFEKNFYVEHPEVARLTPYEVDELRRKKEITVRGGDVCPKPVFAFHHANFPQYVMDVLMDQHFTEPTPIQCQGFPLALSGRDMVGIAQTGSGKTLAYLLPAIVHINHQPYLERGDGPICLVLAPTRELAQQVQQVADDYGKCSRLKSTCIYGGAPKGPQIRDLERGVEICIATPGRLIDFLESGKTNLRRCTYLVLDEADRMLDMGFEPQIRKIVDQIRPDRQTLMWSATWPKEVRQLAEDFLRDYTQINVGNLELSANHNILQIVDVCMESEKDHKLIQLMEEIMAEKENKTIIFVETKRRCDDLTRRMRRDGWPAMCIHGDKSQPERDWVLNEFRSGKAPILIATDVASRGLDVEDVKFVINYDYPNSSEDYVHRIGRTARSTNKGTAYTFFTPGNLKQARELIKVLEEANQAINPKLMQLVDHRGGGGGGGGRSRYRTTSSANNPNLMYQDECDRRLRGVKDGGRRDSASYRDRSETDRAGYANGSGYGSPNSAFGAQAGQYTYGQGTYGAAAYGTSSYTAQEYGAGTYGASSTTSTGRSSQSSSQQFSGIGRSGQQPQPLMSQQFAQPPGATNMIGYMGQTAYQYPPPPPPPPPSRK
B7: U2AF2_HUMAN (protein, UniProt P26368 2-475, looked up)
Splicing factor U2AF 65 kDa …: SDFDEFERQLNENKQERDKENRHRKRSHSRSRSRDRKRRSRSRDRRNRDQRSASRDRRRRSKPLTRGAKEEHGGLIRSPRHEKKKKVRKYWDVPPPGFEHITPMQYKAMQAAGQIPATALLPTMTPDGLAVTPTPVPVVGSQMTRQARRLYVGNIPFGITEEAMMDFFNAQMRLGGLTQAPGNPVLAVQINQDKNFAFLEFRSVDETTQAMAFDGIIFQGQSLKIRRPHDYQPLPGMSENPSVYVPGVVSTVVPDSAHKLFIGGLPNYLNDDQVKELLTSFGPLKAFNLVKDSATGLSKGYAFCEYVDINVTDQAIAGLNGMQLGDKKLLVQRASVGAKNATLVSPPSTINQTPVTLQVPGLMSSQVQMGGHPTEVLCLMNMVLPEELLDDEEYEEIVEDVRDECSKYGLVKSIEIPRPVDGVEVPGCGKIFVEFTSVFDCQKAMQGLTGRKFANRVVVTKYCDPDSYHRRDFW
B8: SEPT9_HUMAN (protein, UniProt Q9UHD8 1-586, looked up)
Septin-9: MKKSYSGGTRTSSGRLRRLGDSSGPALKRSFEVEEVETPNSTPPRRVQTPLLRATVASSTQKFQDLGVKNSEPSARHVDSLSQRSPKASLRRVELSGPKAAEPVSRRTELSIDISSKQVENAGAIGPSRFGLKRAEVLGHKTPEPAPRRTEITIVKPQESAHRRMEPPASKVPEVPTAPATDAAPKRVEIQMPKPAEAPTAPSPAQTLENSEPAPVSQLQSRLEPKPQPPVAEATPRSQEATEAAPSCVGDMADTPRDAGLKQAPASRNEKAPVDFGYVGIDSILEQMRRKAMKQGFEFNIMVVGQSGLGKSTLINTLFKSKISRKSVQPTSEERIPKTIEIKSITHDIEEKGVRMKLTVIDTPGFGDHINNENCWQPIMKFINDQYEKYLQEEVNINRKKRIPDTRVHCCLYFIPATGHSLRPLDIEFMKRLSKVVNIVPVIAKADTLTLEERVHFKQRITADLLSNGIDVYPQKEFDEDSEDRLVNEKFREMIPFAVVGSDHEYQVNGKRILGRKTKWGTIEVENTTHCEFAYLRDLLIRTHMQNIKDITSSIHFEAYRVKRLNEGSSAMANGMEEKEPEAPEM

What follows are molecules tested on KDM4A-I71AzF (assay: CASI: photo-crosslinking with HEK293T cell extracts, StrepTactin enrichment and LC-MS/MS proteomics). Settings: sheet "Final results but with 0.01".
Assay type: binding, human
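Further: lysates from HEK293T cells pretreated with a KDM4 inhibitor to raise proteome methylation, affinity-purified after ±UV, gel-resolved, trypsin-digested, with exclusive unique peptides per protein averaged per condition.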

Row | Molecule | Fold change (+UV/-UV)
1 | B1 | 6
2 | B2 | 0.9
3 | B3 | 0.5
4 | B4 | 1.125
5 | B5 | 3
6 | B6 | 1
7 | B7 | 2
8 | B8 | 0.6667

From article PMC10540216, “Activity Guided Azide-methyllysine Photo-trapping for Substrate Profiling of Lysine Demethylases” (Journal of the American Chemical Society, 2023)
